The test system of the data set is BfuCI restriction endonuclease. Put plainly: cleavage_in_vitro. As to conditions: for binding signal (signal/no-template): after 25 min.
[1] abbreviates: phosphorothioate 5' of GATC in probe B.
Setting [2] is: phosphorothioate 5' of GATC in probe B, JP3 cleaved greater than four times faster.

On to “AGAGTCCACCAAGCTTCAGATTAG / TCTGAAGCTTTGATC / TGTAACGGAAAACCGTTACAGATCATATTGGTGGACTCT [JP16]”, for which, for the setting “phosphorothioate 5' of GATC in probe B, initial rate, 30 C”, the activity was determined as 43 nM/min. With “AGAGTCCACCAAGCTTCAGATTAG / TCTGAAGCTTTGATC / AGTAACGGAAAACCGTTACTAAAAGATCAATTTGGTGGACTCT [JP13]”, under setting [1], the binding signal (signal/no-template) was found to be 13.5.

Turning to “AGAGTCCACCAAGCTTCAGATTAG / TCTGAAGCTTTGATC / GGGGGATCAAATTGGTGGACTCTAAAA [JP7]”, the binding signal under setting [2] is < 0.25 fold vs JP3. For “AGAGTCCACCAAGCTTCAGATTAG / TCTGAAGCTTTGATC / AAAAGATCAAATTGGTGGACTCTAAAA [JP3]”, the activity (phosphorothioate 5' of GATC in probe B, average rate first 5 min, 7-fold signal enhancement over JP2) came out at 0.9 nM/min. Turning to “AGAGTCCACCAAGCTTCAGATTAG / TCTGAAGCTTTGATC / TGTAACGGAAAACCGTTACAGATCAAATTGGTGGACTCT [JP12]”, where the note is “phosphorothioate 5' of GATC in probe B, average rate first 5 min, 30 C”, the activity is 39 nM/min. For the sequence “AGAGTCCACCAAGCTTCAGATTAG / TCTGAAGCTTTGATC / TGGATCGGAAAACCGATCCAGATCATATTGGTGGACTCT [JP18]”, the activity (phosphorothioate 5' of each GATC in probe B, initial rate, NEBuffer 4, 10 mM Mg, 30 C) worked out at 82 nM/min.

“AGAGTCCACCAAGCTTCAGATTAG / TCTGAAGCTTTGATC / AGTAACGGAAAACCGTTACTAAAAGATCATATTGGTGGACTCT [JP14]”: the binding signal (signal/no-template) under setting [1] came out at 9. Turning to “AGAGTCCACCAAGCTTCAGATTAG / TCTGAAGCTTTGATC / AAAAGATCAAATTGGTGGACTCTAAAA [JP4]”, where the note is “phosphorodithioate 5' of GATC in probe B, fluorescence enhancement”, the binding signal was 3 fold vs JP2. “AGAGTCCACCAAGCTTCAGATTAG / TCTGAAGCTTTGATC / AAAAGATCAAATTGGTGGACTCTAAAA [T1/A/B junction probe (JP2)]”: the binding signal (fold vs no template) (NEBuffer 4, 10 mM Mg, 30 C, 5 h) was 60. As to “AGAGTCCACCAAGCTTCAGATTAG / TCTGAAGCTTTGATC / AGTAACGGAAAACCGTTACTAAAAGATCAAATTGGTGGACTCT [JP10]”, the binding signal (signal/no-template) under setting [1] is 4.7.

Consider “AGAGTCCACCAAGCTTCAGATTAG / TCTGAAGCTTTGATC / CCCCGATCAAATTGGTGGACTCTAAAA [JP8]”, for which the binding signal under setting [2] was < 0.25 fold vs JP3. Take “AGAGTCCACCAAGCTTCAGATTAG / TCTGAAGCTTTGATC / TTTTGATCAAATTGGTGGACTCTAAAA [JP9]”: the binding signal under setting [2] was < 0.25 fold vs JP3.
